Source: PMC7968844

Assays:
[1] = FLAG pulldown, MS peptide reads; conditions: glycan lost; control: MCF7-WT cells
[2] = CHX chase, Western blot, endogenous ERα; conditions: glycan lost; control: MCF7-WT cells, empty vector
[3] = CHX chase, Western blot, GREB1-KO cells; conditions: glycan lost; control: ERα-WT in GREB1-KO cells
[4] = CHX chase, Western blot, MCF7-WT cells; conditions: glycan lost; control: ERα-WT in MCF7-WT cells
[5] = Western blot of ERα after GREB1 reconstitution; conditions: glycan gained; control: GREB1-KO cells + Vec

B1: ERα (estrogen receptor α): GREB1-KO (protein)
parent chain: MTMTLHTKASGMALLHQIQGNELEPLNRPQLKIPLERPLGEVYLDSSKPAVYNYPEGAAYEFNAAAAANAQVYGQTGLPYGPGSEAAAFGSNGLGGFPPLNSVSPSPLMLLHPPPQLSPFLQPHGQQVPYYLENEPSGYTVREAGPPAFYRPNSDNRRQGGRERLASTNDKGSMAMESAKETRYCAVCNDYASGYHYGVWSCEGCKAFFKRSIQGHNDYMCPATNQCTIDKNRRKSCQACRLRKCYEVGMMKGGIRKDRRGGRMLKHKRQRDDGEGRGEVGSAGDMRAANLWPSPLMIKRSKKNSLALSLTADQMVSALLDAEPPILYSEYDPTRPFSEASMMGLLTNLADRELVHMINWAKRVPGFVDLTLHDQVHLLECAWLEILMIGLVWRSMEHPGKLLFAPNLLLDRNQGKCVEGMVEIFDMLLATSSRFRMMNLQGEEFVCLKSIILLNSGVYTFLSSTLKSLEEKDHIHRVLDKITDTLIHLMAKAGLTLQQQHQRLAQLLLILSHIRHMSNKGMEHLYSMKCKNVVPLYDLLLEMLDAHRLHAPTSRGGASVEETDQSHLATAGSTSSHSLQKYYITGEAEGFPATV
other: ubiquitin associated with ERα [1]: increases | degradation_or_half_life [2]: decreases

B2: ERα (estrogen receptor α): ERα-2M (protein)
parent chain: B1 parent chain
degradation_or_half_life [3]: no change | degradation_or_half_life [4]: decreases

B3: ERα (estrogen receptor α): GT-WT (protein)
parent chain: B1 parent chain
expression_or_secretion [5]: increases
